Test [1] concerns the target T1, human vWf (human, UniProt P04275 764-2813).
T1 construct: Plasma-type multimeric protein; It was coated on plates (25-500 ng/well) in the adhesion assay and FITC-labeled (F/P ratio 1-4) in the flow cytometry assay; also called FITC˜vWf
Kind of test: platelet adhesion to vWf-coated 96-well plates (25-500 ng/well) with botrocetin 4 µM; bound platelets read by acid phosphatase activity. Here is the method: 96-well plates were coated with various concentrations (25-500 ng/well) of human vWf overnight at 4° C. Pooled WP from mice were resuspended in Mg²⁺-free CFTH buffer (1.2×10⁸/mL) containing botrocetin (4 μM), and incubated immobilized human vWf for 1 hour at room temp. Following two PBS washes, bound platelets were lysed and intracellular acid phosphatase activity was quantitated calorimetrically using the substrate pNPP (Sigma).

The target of test [2] is T1, human vWf. Kind of test: flow cytometry, FITC-vWf on mouse platelets in PRP stimulated with ADP and epinephrine (no botrocetin). In general terms: Flow cytometry measures light scatter and fluorescence of single cells or particles in a stream.

B1: mouse GP Ib on platelets (receptor)
chain 1: QHTCSISKVTSLLEVNCENKKLTALPADLPADTGILHLGENQLGTFSTASLVHFTHLTYLYLDRCELTSLQTNGKLIKLENLDLSHNNLKSLPSLGWALPALTTLDVSFNKLGSLSPGVLDGLSQLQELYLQNNDLKSLPPGLLLPTTKLKKLNLANNKLRELPSGLLDGLEDLDTLYLQRNWLRTIPKGFFGTLLLPFVFLHANSWYCDCEILYFRHWLQENANNVYLWKQGVDVKDTTPNVASVRCANLDNAPVYSYPGKGCPTSSGDTDYDDYDDIPDVPATRTEVKFSTNTKVHTTHWSLLAAAPSTSQDSQMISLPPTHKPTKKQSTFIHTQSPGFTTLPETMESNPTFYSLKLNTVLIPSPTTLEPTSTQATPEPNIQPMLTTSTLTTPEHSTTPVPTTTILTTPEHSTIPVPTTAILTTPKPSTIPVPTTATLTTLEPSTTPVPTTATLTTPEPSTTLVPTTATLTTPEHSTTPVPTTATLTTPEHSTTPVPTTATLTTPEPSTTLTNLVSTISPVLTTTLTTPESTPIETILEQFFTTELTLLPTLESTTTIIPEQNSFLNLPEVALVSSDTSESSPFLNSDFCCFLPLGFYVLGLLWLLFASVVLILLLTWTWHVTPHSLDMEQSAALATSTHTTSLEVQRARQVTMPRAWLLFLQGSLPTFRSSLFLWVRPNGRVGPLVAGRRPSALSQGRGQDLLGTVGIRYSGHSL
chain 2: PAPCSCAGTLVDCGRRGLTWASLPAAFPPDTTELVLTGNNLTALPPGLLDALPALRAAHLGANPWRCDCRLLPLRAWLAGRPERAPYRDLRCVAPPALRGRLLPYVAEDELRAACAPGLLCWGALVAQLALLVLGLLHALLLALLLGRLRRLRARARARSIQEFSLTAPLVAESARGGAS
notes: whole, on cells; Native receptor on mouse platelets of GP V wt, +/- and -/- genotype, present there in complex with GP IX (and with GP V in wt); also called GP Ib-IX (complex on platelets)
Consider B1, for which the binding result in test [1] is “binds”.

B2: mouse αIIbβ3 on platelets (receptor)
chain 1: LNLDSEKFSVYAGPNGSHFGFSVDFHKDKHGSVSIVVGAPRALNASQEETGAVFLCPWKANGGKCNPLLFDLRDETRNLGFQIFQTFKTGQGLGASVVSWNDVIVACAPWQHWNVLEKRDEAEKTPVGGCFLAQLQSGGRAEYSPCRANTMSSVYAESFRGDKRYCEAGFSLAVTQAGELVLGAPGGYFFLGLLARVPIENIISSYRPGTLLWHVSNQRFTYDNSNPVFFDGYRGYSVAVGEFDGDPSTTEYVSGAPTWSWTLGAVEILDSYYQPLHRLHGEQMASYFGHSVAVTDVNGDGRHDLLVGAPLYMESRADRKLAEVGRVYLFLQPKGPQALSTPTLLLTGTQLYGRFGSAIAPLGDLNRDGYNDIAVAAPYGGPSGQGQVLIFLGQSEGLSPRPSQVLDSPFPTGSGFGFSLRGAVDIDDNGYPDLIVGAYGASKVAVYRAQPVVMATVQLMVQDSLNPTLKNCVLDQTKTPVSCFNIQMCVGATGHNIPQKLHLKAELQLDLQKPRQGRRVLLLASQQASLTLSLDLGGRDKPICHTTGAFLRDEADFRDKLSPIVLSLNVSLPPEETGGAPAVVLHGETHVQEQTRIILDCGEDDLCVPQLRLTATAGDSPLLIGADNVLELKIEAANDGEGAYEAELAVHLPPGAHYMRALSNIEGFERLVCTQKKENESRVALCELGNPMKKDTRIGITMLVSVENLEEAGESVSFQLQVRSKNSQNPNSKVVMLPVAIQAEATVELRGNSFPASLVVAAEEGDREQEDLDRWVSRLEHTYELHNIGPGTVNGLRLLIHIPGQSQPSDLLYILDVQPQGGLLCSTQPSPKVDWKLSTPSPSSIRPVHHQRERRQAFLQGPKPGQQDPVLVSCDGSASCTVVECELREMVRGQRAMVTVQVMLGLSSLRQRPQEQFVLQSHAWFNVSSLPYSVPVVSLPSGQARVQTQLLRALEERAIPVWWVLVGVLGGLLLLTLLVLAMWKAGFFKRNRPPLEEDEEEE
chain 2: ESNICTTRGVNSCQQCLAVSPVCAWCSDETLSQGSPRCNLKENLLKDNCAPESIEFPVSEAQILEARPLSSKGSGSSAQITQVSPQRIALRLRPDDSKIFSLQVRQVEDYPVDIYYLMDLSFSMKDDLSSIQTLGTKLASQMRKLTSNLRIGFGAFVDKPVSPYMYISPPQAIKNPCYNMKNACLPMFGYKHVLTLTDQVSRFNEEVKKQSVSRNRDAPEGGFDAIMQATVCDEKIGWRNDASHLLVFTTDAKTHIALDGRLAGIVLPNDGHCHIGTDNHYSASTTMDYPSLGLMTEKLSQKNINLIFAVTENVVSLYQNYSELIPGTTVGVLSDDSSNVLQLIVDAYGKIRSKVELEVRDLPEELSLSFNATCLNNEVIPGLKSCVGLKIGDTVSFSIEAKVRGCPQEKEQSFTIKPVGFKDSLTVQVTFDCDCACQAFAQPSSPRCNNGNGTFECGVCRCDQGWLGSMCECSEEDYRPSQQEECSPKEGQPICSQRGECLCGQCVCHSSDFGKITGKYCECDDFSCVRYKGEMCSGHGQCNCGDCVCDSDWTGYYCNCTTRTDTCMSTNGLLCSGRGNCECGSCVCVQPGSYGDTCEKCPTCPDACSFKKECVECKKFNRGTLHEENTCSRYCRDDIEQVKELTDTGKNAVNCTYKNEDDCVVRFQYYEDTSGRAVLYVVEEPECPKGPDILVVLLSVMGAILLIGLATLLIWKLLITIHDRKEFAKFEEERARAKWDTANNPLYKEATSTFTNITYRGT
notes: whole, on cells; Native receptor on washed mouse platelets of GP V wt, +/- and -/- genotype; also called mouse fibrinogen receptor; GPIIb-IIIa
For B2, in test [2], the binding result is on record as “no binding”.

Source of the values: patent US20030167487A1 (Takeda / Millennium, published 2003).
